Data from patent US20230322952A1 (BIOMUNEX PHARMACEUTICALS, published 2023).

Columns and labels:
[1] = target: T1, CD19 expressed on the cell surface of tumor cells (UniProt P15391 20-556, limits assumed); experiment: cell-based or functional assay
T1 sequence (looked up): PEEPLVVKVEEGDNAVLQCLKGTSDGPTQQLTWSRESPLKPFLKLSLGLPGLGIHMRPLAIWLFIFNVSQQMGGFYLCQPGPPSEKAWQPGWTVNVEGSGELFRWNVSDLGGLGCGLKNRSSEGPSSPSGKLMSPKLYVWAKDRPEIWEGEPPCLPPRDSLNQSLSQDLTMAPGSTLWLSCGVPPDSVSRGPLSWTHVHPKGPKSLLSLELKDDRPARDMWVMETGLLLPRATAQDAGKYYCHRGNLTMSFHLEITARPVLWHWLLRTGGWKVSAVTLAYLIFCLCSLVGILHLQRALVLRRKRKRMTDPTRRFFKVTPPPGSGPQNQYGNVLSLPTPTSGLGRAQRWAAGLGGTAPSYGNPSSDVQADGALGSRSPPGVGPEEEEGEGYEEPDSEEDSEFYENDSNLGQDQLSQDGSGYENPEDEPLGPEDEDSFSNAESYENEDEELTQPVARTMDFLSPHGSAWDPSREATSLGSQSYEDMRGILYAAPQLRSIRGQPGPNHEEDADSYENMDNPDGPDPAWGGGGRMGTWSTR

[2] = target: T2, Vα7.2 TCR chain expressed on Vα7.2+CD8+ MAIT cells (human); experiment: flow cytometry on Vα7.2+ cells among human CD8+ T cells
T2 construct: whole, on cells; also called TCR Vα7.2 chain; Vα7.2+ cells
T2 sequence (A0A0B4J238 19-106): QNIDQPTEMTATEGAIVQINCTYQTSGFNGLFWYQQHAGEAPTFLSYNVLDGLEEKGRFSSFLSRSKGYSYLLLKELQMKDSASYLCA
Experimental: The anti-Vα7.2/anti-CD19 Fab-Fab was then tested for binding on Vα7.2+CD8⁺ T cells. The assay was performed by flow cytometry. Human CD8⁺ T cells were isolated from purified peripheral blood mononuclear cells (PBMCs). Briefly, leukapheresis packs coming from healthy donors were centrifuged in ficoll gradients and the PBMCs were collected. CD8⁺ T cells were then isolated with a commercial negative selection kit (Miltenyi Biotec). These cells were then used to determine binding of anti-Vα7.2/anti-CD19 […] on Vα7.2⁺ cells. Cells were washed with PBS and stained with a Fixable Viability Dye (eFluor™ 780, ThermoFisher) and the human Fc Block reagent (BD) (in PBS for 25 min at 4° C.). The cells were then washed with FACS buffer (PBS, 2 mM EDTA, 0.5% BSA) and stained with different concentrations of anti-Vα7.2/anti-CD19 Fab-Fab (Table 3, shown in both nM and μg/ml) for 1 h at 4° C. An irrelevant Fab-Fab was used as a negative control. Following washing (5×), the cells were stained with a secondary goat anti-human antibody conjugated with Phycoerythrin (Jackson Immunoresearch) and an anti-CD8 antibody (Biolegend) for 45 min at 4° C. The cells were then analyzed in the MACSquant flow cytometer.
Depending on the donor, Vα7.2⁺ cells range between 1 to 10% of CD8⁺ T cells.

B1: anti-CD19/anti-Vα7.2 Fab-Fab (bispecific antibody)
heavy: QVQLQQSGAELVRPGSSVKISCKASGYAFSSYWMNWVKQRPGQGLEWIGQIWPGDGDTNYNGKFKGKATLTADESSSTAYMQLSSLASEDSAVYFCARRETTTVGRYYYAMDYWGQGTTVTVSSASTKGPSVFPLAPSSKSTSGGTAALGCLVKDYFPEPVTVSWNSGALTSGVHTFPAVLQSSGLYSLSSVVDVPSSSLGTQTYICNVNHKPSNTKVDKRVEPKSCDKTHTAPPAPAPELLGGPAAPPAPAPAGGEVQLQQSGAELVKPGASVKLSCTASGFNIKDTHMHWVKQRPEQGLEWIGRTDPASGDTKYDPKFQGKATITADTSSNTAYLHLSSLTSEDTAVYYCAHYYRDDVNYAMDYWGQGTTVTVSSASTKGPSVFPQAPSSKSTSGGTAALGCLVKDYFPEPVTVSWNSGALTSGVHTFPAVLQSSGLYSLVSVVTVPSSSLGTQTYICNVNHKPSNTKVDKRVEPKSC
light 1: not shown
light 2: DIVMTQSQKFLSTSVGDRVSVTCKARQNVGSNVAWYQQKPGQSPKSLIYSSSFRYSGVPDRFTGSGSGTDFTLTISNVQSEDLAEYFCQQYNTYPYTFGGGTELEIKRTVAAPSVFIFPPSDEQLKSGTASVTCLLNNFYPREAKVQWKVDNALQSGNSQESVTEQDSKDSTYSLVSTLTLSKADYEKHKVYACEVTHQGLSSPVTKSFNRGEC
percentage of CD19+ A-549 tumor cells lysis [1]: ≤ 30%

B2: anti-Vα7.2/anti-CD19 BiXAb (bispecific antibody, human IgG1, kappa, L234A L235A)
heavy: not shown
light 1: not shown
light 2: B1 light 2
percentage of CD19+ A-549 tumor cells lysis [1]: ≤ 30%

B3: anti-Vα7.2/anti-CD19 Fab-Fab (bispecific antibody)
heavy: EVQLQQSGAELVKPGASVKLSCTASGFNIKDTHMHWVKQRPEQGLEWIGRTDPASGDTKYDPKFQGKATITADTSSNTAYLHLSSLTSEDTAVYYCAHYYRDDVNYAMDYWGQGTTVTVSSASTKGPSVFPQAPSSKSTSGGTAALGCLVKDYFPEPVTVSWNSGALTSGVHTFPAVLQSSGLYSLVSVVTVPSSSLGTQTYICNVNHKPSNTKVDKRVEPKSCDKTHTAPPAPAPELLGGPAAPPAPAPAGGQVQLQQSGAELVRPGSSVKISCKASGYAFSSYWMNWVKQRPGQGLEWIGQIWPGDGDTNYNGKFKGKATLTADESSSTAYMQLSSLASEDSAVYFCARRETTTVGRYYYAMDYWGQGTTVTVSSASTKGPSVFPLAPSSKSTSGGTAALGCLVKDYFPEPVTVSWNSGALTSGVHTFPAVLQSSGLYSLSSVVDVPSSSLGTQTYICNVNHKPSNTKVDKRVEPKSC
light 1: not shown
light 2: B1 light 2
notes: Tandem Fab-Fab without Fc; anti-Vα7.2 Fab (from clone 3C10) at the N-terminus; also called Vα7.2/CD19 Fab-Fab
percentage of CD19+ A-549 tumor cells lysis [1]: ≤ 30% | EC50 [2]: 3.49 nM

B4: anti-CD19/anti-Vα7.2 BiXAb (bispecific antibody, human IgG1, kappa, L234A L235A)
heavy: not shown
light 1: not shown
light 2: B1 light 2
percentage of CD19+ A-549 tumor cells lysis [1]: ≤ 30%
